Key:
[1] = target: Myo4/2p (Myo4 motor - Myo2 IQ + C-tail) (S. cerevisiae) (UniProt P32492); experiment: cross-linking
[2] = target: Myo4p-GFP (S. cerevisiae) (UniProt P32492); experiment: single-molecule fluorescence intensity and photobleaching
[3] = target: the molecule itself; experiment: cross-linking
[4] = target: the molecule itself; experiment: single-molecule fluorescence intensity and photobleaching

Molecule: Myo4/2p (Myo4 motor - Myo2 IQ + C-tail) (from UniProt P32492 1-778; P19524 783-1574)
- stoichiometry N [1]: 2

Molecule: Myo4p-GFP (from UniProt P32492 1-1471) (natural protein)
- stoichiometry N [2]: > 3

B1: Myo2p (TEV-eluted and actin affinity purified from Myo2p-1/2TAP) (natural protein, S. cerevisiae, UniProt P19524 1-1574, looked up)
chain: MSFEVGTRCWYPHKELGWIGAEVIKNEFNDGKYHLELQLEDDEIVSVDTKDLNNDKDQSLPLLRNPPILEATEDLTSLSYLNEPAVLHAIKQRYSQLNIYTYSGIVLIATNPFDRVDQLYTQDMIQAYAGKRRGELEPHLFAIAEEAYRLMKNDKQNQTIVVSGESGAGKTVSAKYIMRYFASVEEENSATVQHQVEMSETEQKILATNPIMEAFGNAKTTRNDNSSRFGKYLEILFDKDTSIIGARIRTYLLERSRLVYQPPIERNYHIFYQLMAGLPAQTKEELHLTDASDYFYMNQGGDTKINGIDDAKEYKITVDALTLVGITKETQHQIFKILAALLHIGNIEIKKTRNDASLSADEPNLKLACELLGIDAYNFAKWVTKKQIITRSEKIVSNLNYSQALVAKDSVAKFIYSALFDWLVENINTVLCNPAVNDQISSFIGVLDIYGFEHFEKNSFEQFCINYANEKLQQEFNQHVFKLEQEEYVKEEIEWSFIEFNDNQPCIDLIENKLGILSLLDEESRLPAGSDESWTQKLYQTLDKSPTNKVFSKPRFGQTKFIVSHYALDVAYDVEGFIEKNRDTVSDGHLEVLKASTNETLINILEGLEKAAKKLEEAKKLELEQAGSKKPGPIRTVNRKPTLGSMFKQSLIELMNTINSTNVHYIRCIKPNADKEAWQFDNLMVLSQLRACGVLETIRISCAGFPSRWTFEEFVLRYYILIPHEQWDLIFKKKETTEEDIISVVKMILDATVKDKSKYQIGNTKIFFKAGMLAYLEKLRSNKMHNSIVMIQKKIRAKYYRKQYLQISQAIKYLQNNIKGFIIRQRVNDEMKVNCATLLQAAYRGHSIRANVFSVLRTITNLQKKIRKELKQRQLKQEHEYNAAVTIQSKVRTFEPRSRFLRTKKDTVVVQSLIRRRAAQRKLKQLKADAKSVNHLKEVSYKLENKVIELTQNLASKVKENKEMTERIKELQVQVEESAKLQETLENMKKEHLIDIDNQKSKDMELQKTIENNLQSTEQTLKDAQLELEDMVKQHDELKEESKKQLEELEQTKKTLVEYQTLNGDLQNEVKSLKEEIARLQTAMSLGTVTTSVLPQTPLKDVMGGGASNFNNMMLENSDLSPNDLNLKSRSTPSSGNNHIDSLSVDRENGVNATQINEELYRLLEDTEILNQEITEGLLKGFEVPDAGVAIQLSKRDVVYPARILIIVLSEMWRFGLTKQSESFLAQVLTTIQKVVTQLKGNDLIPSGVFWLANVRELYSFVVFALNSILTEETFKNGMTDEEYKEYVSLVTELKDDFEALSYNIYNIWLKKLQKQLQKKAINAVVISESLPGFSAGETSGFLNKIFANTEEYTMDDILTFFNSIYWCMKSFHIENEVFHAVVTTLLNYVDAICFNELIMKRNFLSWKRGLQLNYNVTRLEEWCKTHGLTDGTECLQHLIQTAKLLQVRKYTIEDIDILRGICYSLTPAQLQKLISQYQVADYESPIPQEILRYVADIVKKEAALSSSGNDSKGHEHSSSIFITPETGPFTDPFSLIKTRKFDQVEAYIPAWLSLPSTKRIVDLVAQQVVQDGH
- stoichiometry N [3]: 2

B2: Myo2p-GFP (natural protein, S. cerevisiae, UniProt P19524 1-1574, looked up)
chain: B1 chain
- stoichiometry N [4]: 2
